Measurements reported in a protein production outcome set (Wang et al. 2014).

Assay: label from the status in PepcDB records

For “MQRLSTEFSMNHPVRRSPIASFFVGLWDVMNFTRRLIFNLVFFGFLFMLLLVFVVALARGDGTKPLAERTTLVINPEGTLVEQFSADPVSRSLAKAVGDKSAQEVQLRDLVRVIEAAGKDRKIERVLLNLDKFQPSGFASQREVAAALQKLRASGKQIVAFSESMSQGQYLLAAQANEVYLDPMGSVLLEGLGRYRQYFREGLQDKLGVDVHLFRVGEYKSAAEPYILDAASADAKEADLFWMNDVWQRYLADVVTARKLSPAQLTAGIDTLPEGVAAAGGDLAKFALQQKLVDGLKTREEVDALLVKRGVADSDAESGFRNIGFNDYLSQLQAQDSPMDSRPQVAVVVATGEISGGEQPAGRIGGESTAALLRQARDDEKVKAVVLRVDSPGGEVFASEQIRREVVALKQAGKPVVVSMGDLAASGGYWISMNADRIYADPSTISGSIGIFGMVPNLTRALDKIGVHTDGVGTTRFAGAFDITRPLDPAAGQVIQAVINKGYADFTGKVAQARHQSVDAIDKVARGRVWSGAQAKERGLVDAFGGMSEAVADAADRAKLSRGKFRVRYVEKPATPFSQFMNGFAGSRMGAWMLSDSGMARALVARALPEVDTQLRFVESAVHDSKAGGTPVKSLAYCFCGF”, the protein production was “failed”.

With “PTLDSVEDGVLKKVVINISNSCNLSCSYCYADGGNYGMDNRIMDLTTADNIIQEIASKGVTQINRLILFGGEPFLNIELFIYFIEKLSTLLNVVKIETVTNGTVLNKRVKEMLVKFHPYLTISLDGPEIVHDRLRGRGSHRKTLRFINYLKNIDYE” the protein production was “failed”.

In the case of “MNNSETPAPGPDSLLALAFPSDPQVSPDGKQVAFVLAQISEEDPAKPDKDFARPRYRSGLWLSEGGAARPLTHAETGRGDSAPRWSPDGQNLAFVRSAGEVKAALMLLPLKGGEARRVTHFKNGVSGPQWSPDGRFIAFTTTADTEDKRDERGEARVLTRPVYRANGADWLPERPAALWLYDVEADKLREWYAPEIGIGALSWWPDSRGVLIVQSEDEWQASQWRQDVYDLPLPTADAPAAPQKLLDWNSAAHGLAPHPDGQRFALIGRPAGKGNTEHAHLYLIENGQHRRLDTGHDHPVGDAVGGDCHVGAFPEGPRWLDGDTLLFSSTVRGSVGLFTAHIGGGVKAYDHDPQGVISAFTANEHGVALIRESATRFPEVELNGQRVTDLHARFPFPVREPQRVTFETELGEGEGWVLLPEGEQKVPALLNIHGGPHTDYGHGFTHEFQLMAARGYGVCYSNPRGSVGYGQAWVDAIYGRWGTVDADDLLNFFDRCLEAVPRLDAAKTAVMGGSYGGFMTNWITGHTTRFQAAITDRCISNLISFGGTSDIGLRFWDDELGLDFSRRADALKLWDLSPLQYVENVKTPTLIVHSVLDHRCPVEQAEQWYAALHKHQVPVRFVRFPEENHELSRSGRPDRRLTRLNEYFAWLERWL”, the protein production was “failed”.

For “MAHATPPSALEQGGPIRVEHDRQRRQFSVRLNGCHDRAVLLYEYVGKRIVDLQHTEVPDAYRGRGIAKHLAKAALDFVVEEDLKAHLTCWYIQKYVKENPLPQYLERLQP”, the protein production was “failed”.

For “MKKALISTLFGVSLAFAKPYTIDKANSSVWFEVKHFTFNETRGAFDNFDGKIDLEPNTKMLSVFEGNIDVKSVNTRDRKRDNHLKTADFFDVVKYPKGSFKMTKYEDGKIYGDLTLRGVTKPVVLEAKIQAPLQNPMNKKEFMVLQAEGKINRKDFGIGKTFSDAVVGDEVKIELKLEAYAQ”, the protein production was “failed”.

In the case of “MKNVLYTLFAISICLMLGKLANYLLAALPASLYGMIIYALFLQLNWFSPDKITKTNQWFIKHMGVCLVPAGMGIINHFQLIQQHGIALVVIIFSSTFILLTVIGYLSERYLITPDNIKSKAPTGSR”, the protein production was “failed”.

For “PAKRAFSNADQFVETMLPLAKEAAARIGVDPVMLVAQAALETGWGKSIMRQQDGSSSHNLFGIKAAGSWKGAEARAITSEFRDGKMVKETADFRSYDSYADSFHDLVSLLQNNNRYKDVVNSADKPEQFVKELQKAGYATDPAYASKISQIAKQMKS”, the protein production was “not failed”.

With “MEDLEETLFEEFENYSYDLDYYSLESDLEEKVQLGVVHWVSLVLYCLAFVLGIPGNAIVIWFTGFKWKKTVTTLWFLNLAIADFIFLLFLPLYISYVAMNFHWPFGIWLCKANSFTAQLNMFASVFFLTVISLDHYIHLIHPVLSHRHRTLKNSLIVIIFIWLLASLIGGPALYFRDTVEFNNHTLCYNNFQKHDPDLTLIRHHVLTWVKFIIGYLFPLLTMSICYLCLIFKVKKRSILISSRHFWTILVVVVAFVVCWTPYHLFSIWELTIHHNSYSHHVMQAGIPLSTGLAFLNSCLNPILYVLISKKFQARFRSSVAEILKYTLWEVSCSGTVSEQLRNSETKNLCLLETAQ” the protein production was “failed”.

In the case of “MGHHHHHHSHNQEHQLGNNTLSSHLQIDKMTDNKTGEVLISENVVASIQPAEGSFEGDLKVPRMEEKEALVPIQKATDSFHTELHPRVAFWIIKLPRRRSHQDALE”, the protein production was “failed”.

For “MSKRDYYQVLGVPRTASEDDLKKAYRRCAMKYHPDRNPGDAAAEAAFKECKEAYEVLADTKKRKLYDTHGHAAFEHGVGSGNTPDMNDIFGDIFGNIFGGARASRRGADVGYMVELDLEEAVAGVERQIQIPTLVECTHCHGSGSEDGHVETCGTCRGSGQVRIQRGIFAMQQTCPHCGGRGVIIRNPCKVCNGAGRVEDHKTLSVKIPAGVDNGDRIRLSGEGEQGPDGVPPGDLYVEVRVREHPIFQRDGDDLHCEVPVRISQAALGDIVRVATLDGEAEIRIPAETQSGKLFRLRGKGVRSVRSRTEGDLYCRIVVETPVNLTAEQRKLLEQFEMTFAGEDARKHSPKSATFLDGVKSFWDRMTS”, the protein production was “failed”.

For “SLRADKPKCSIQNFFIPALGKDPNSRDNTTLNFMVRCDNPNKDKGIYYDDVHLNFSTINTTKINSSALVLVGNYTVPKFYQGHKKKAKKWGQVKPLNNQTVLRAVLPNGSAVFRLDLKTQVRFKIVFWKTKRYGVEVGADVEVNGDGVKAQKKGIKMKKS”, the protein production was “not failed”.

With “MKITDISGKIETLVDSLRDMSPTRVRSSFSDEHVSENDDERSSWIALHPSALDMFEQIMRDAEGKQIIMFLDYDGTLSLITEDHDRAYITDEMREVVKEVATYFKTAIISGRSTDKVQSFVKLTGIHYAGSHGMDIKGPTNTDQSNQEEVMFQPASDYLPMIDEVVNVLKEKTKSIPGATVEHNKFCLTVHFRRVDETGWAALAEQVRLVLIDYPKLRLTQGRKVLELRPSIKWDKGKALEFLLNSLGIAESKDVLPVYIGDDRTDEDAFKVLCERGQGFGIIVSKTIKETYASYSLQDPSQVKEFLERLVKWKKQTLGE” the protein production was “failed”.

With “MASWPYCNHKRGLNGYGVFFSIFFGSGAYNAPVRIAVLADIHGNADALRAVLKDAAEQGAERLIVNGDVVNRGPDSVQVMEELLARDDTSFVLGNHDDLLRLWHTRSDKLPQDWYDDPFWGATAWSTEQLHAAGLLDVPGDWPLTARLSVPGLPDVLLAHGTPDDYRRGLSERTDPALVRRIADESGAGVLVGSHIHRQADALVGGVRVLNTGAVGSPADGDPRAQYLLLTATPQGWQTELRRVPYDRSGVLQRFETSGLLDTGLSARIFRDELVTARSLYTPYWEWTETGGCPRDTASWEQFAQDWT” the protein production was “failed”.

For “AGVVVPKYTPSTENPGGPGEEPGDGLIDPAEPLDRGFMHLKGRELKSLNSISITGLNDGEKVILSTLAGLAARVTGDQVYINEGGPSSVWLKQMQNKYGIPVNTYNALAPLVQHYVETGVIKGYIVYTPYSEGQSHSINVATSLCGLLRGIAVPESLVDKVKAMGVTTELMDVRSYDEKWLYENYKDQLDKSLAADMKPEIFHHLRDYITMTNAFAFYDYNARRDWSWRTSILKDLDKGAYCFGYYDLDEWGMVNNASQLGVSMLPTDQAANLATLSSIYDTTGLKQRPATKEVVTEENVHYVTFLVSDGDNIAFNLWGQQGYMDHDLHGQFPLGYTISPSLYDLAPAALRWYYENSKEGDYFVAGPSGSSYIFPSKMSDADLDDYLAKLNEYVDKSGLNICNILDQKIMDNPKVYNKYLAQPNIDAIFYTGYGEKGDGRIKFSDNGKPVIEQRSVLWEGIDGGSNRGEESTVISQINSRSANPHSADGYTFVFVHCWTKNQQSIKTVIDGLNDNVRVVPVDQFVQLVKQNLGPK”, the protein production was “not failed”.
